Measurements taken from patent US20180057581A1 (MorphoSys, published 2018).
Changes are numbered by the printed parent chain.

T1: human M-CSF (human, UniProt P09603 33-255, limits assumed)
T1 construct: also called M-CSF (human); CSF-1
T1 sequence: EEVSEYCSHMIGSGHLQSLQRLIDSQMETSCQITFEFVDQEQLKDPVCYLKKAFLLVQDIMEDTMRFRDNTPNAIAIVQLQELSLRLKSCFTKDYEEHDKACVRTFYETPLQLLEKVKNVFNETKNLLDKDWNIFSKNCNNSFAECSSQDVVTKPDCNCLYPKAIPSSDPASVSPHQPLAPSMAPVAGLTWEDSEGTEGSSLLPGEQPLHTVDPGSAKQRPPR

T2: Recombinant cynomolgus monkey sgM-CSF (cynomolgus (Macaca fascicularis), UniProt P09603 33-255 (human entry), limits assumed)
T2 construct: used also where only 'cynomolgus M-CSF' is printed (ELISA result, SET); also called cynomolgus sgM-CSF; cyno sgM-CSF
T2 chain: T1 sequence with V186M, E192D

T3: Recombinant human sgM-CSF (human, UniProt P09603 33-255)
T3 construct: also called human secreted glycosylated M-CSF; Human M-CSF
T3 sequence: T1 sequence

B1: Blanche, Fab (Fab, V domains shown)
VH: QVQLQQSGPGLVKPSQTLSLTCAISGDSVSSNSAAWNWIRQSPSRGLEWLGRTYYRSKWKHEYAMSVKSRITINPDTSKNQFSLQLNSVTPEDTAVYYCARDRYYYSAFDYWGQGTLVTVSS
VL: DIALTQPASVSGSPGQSITISCTGTSSDVGGYNSVSWYQQHPGKAPKLMIYAVSNRPSGVSNRFSGSKSGNTASLTISGLQAEDEADYYCASYDERFTRVFGGGTKLTVLG
B2: Caline, Fab (Fab, V domains shown)
VH: B1 VH
VL: B1 VL with D1Q, I2S
B3: Camille, Fab (Fab, V domains shown)
VH: B1 VH with D27E, S31T, N32S, M65V
VL: B1 VL with D1Q, I2S, M49L
B4: Laurine, Fab (Fab, V domains shown)
VH: B1 VH with H61K, M65Q
VL: B1 VL
B5: Maelle, Fab (Fab, V domains shown)
VH: B1 VH with D27E, S31T, N32S, H61K, M65Q
VL: B1 VL with D1Q, I2S, M49I
B6: Meriem, Fab (Fab, V domains shown)
VH: B1 VH with S31T, N32S, H61K, M65Q
VL: B1 VL with D1Q, I2S, M49I
B7: HeRX1-10G1 (format not stated) (antibody, V domains shown)
VH: QVQLQESGPGLVKPSQTLSLTCTVSDYSITSDYAWNWIRQFPGKGLEWMGYISYSGSTSYNPSLKSRITISRDTSKNQFSLQLNSVTAADTAVYYCASFDYAHAMDYWGQGTTVTVSS
VL: DIVLTQSPAFLSVTPGEKVTFTCQASQSIGTSIHWYQQKTDQAPKLLIKYASESISGIPSRFSGSGSGTDFTLTISSVEAEDAADYYCQQINSWPTTFGGGTKLEIKR
notes: Prior art antibody
B8: 8.10.3F (format not stated) (antibody, V domains shown)
VH: EVQLVESGGGLVQPGGSLRLSCAASGFTFSSFSMTWVRQAPGKGLEWVSYISSRSSTISYADSVKGRFTISRDNAKNSLYLQMNSLRDEDTAVYYCARDPLLAGATFFDYWGQGTLVTVSS
VL: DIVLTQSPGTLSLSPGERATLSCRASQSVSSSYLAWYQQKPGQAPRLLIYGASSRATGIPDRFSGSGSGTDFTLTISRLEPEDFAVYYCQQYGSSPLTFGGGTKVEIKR
notes: Prior art antibody; also called 8.10.F3
B9: Madeleine, Fab (Fab, V domains shown)
VH: B1 VH with H61K, M65Q
VL: B1 VL with D1Q, I2S
B10: Romaine, Fab (Fab, V domains shown)
VH: EVQLVESGGGLVKPGGSLRLSCAASGFTFSIYAMSWVRQAPGKGLEWVGRIKSNADGGTTEYAAPVKGRFTISRDDSKNTLYLQMNSLKTEDTAVYYCARMRYYSDLYFDPWGQGTLVTVSS
VL: DIELTQPPSVSVSPGQTASITCSGDAIGSKYVHWYQQKPGQAPVLVISKDNKRPSGIPERFSGSNSGNTATLTISGTQAEDEADYYCQTATVSSYWWVFGGGTKLTVLG

Columns and labels:
[1] = molecular target: T1, human M-CSF; test: soluble equilibrium titration (SET), Fab, monovalent
Description: (§1) The monovalent affinity of the antibodies of the present disclosure was determined by soluble equilibrium titration (Haenel et al. (2005) Anal Biochem 339, 182-4).

[2] = molecular target: T2, Recombinant cynomolgus monkey sgM-CSF; test: as above
Description: as §1

[3] = molecular target: T1, human M-CSF; test: ELISA
Description: (§2) BSA was used as a negative control substrate.
(§3) After blocking of plates with 5% skim milk powder in PBS, Fab-containing E. coli lysates, IgG-containing cell culture supernatants or purified IgG or Fab proteins were added. Binding of Fabs or IgGs was detected by F(ab)₂ specific goat anti-human IgG conjugated to alkaline phosphatase (Dianova Cat# 109-055-097; diluted 1:5000) using Attophos fluorescence substrate (Roche, #11681982001). Fluorescence emission at 535 nm was recorded with excitation at 430 nm.

[4] = molecular target: T2, Recombinant cynomolgus monkey sgM-CSF; test: ELISA
Description: as §2, §3

[5] = molecular target: T3, Recombinant human sgM-CSF; test: Receptor binding assay, inhibition of human M-CSF binding to M-CSF receptor (competitor CSF1-R-Fc); Table 12 summary
[6] = molecular target: T3, Recombinant human sgM-CSF; test: Table 12 summary, criterion Binding, Human M-CSF; assay and antibody format not named there
Description: as §1

[7] = molecular target: T2, Recombinant cynomolgus monkey sgM-CSF; test: cell-based or functional assay
[8] = molecular target: T3, Recombinant human sgM-CSF; test: cell-based or functional assay
[9] = molecular target: T2, Recombinant cynomolgus monkey sgM-CSF; test: Receptor binding assay, inhibition of cynomolgus M-CSF binding to M-CSF receptor (competitor CSF1-R-Fc); Table 12 summary
Description: Complexes were then transferred to 384 well MSD plates coated with 2 μg/ml of the corresponding receptor. Plates were then washed and incubated with the streptavidin/ECL conjugate for 2 h with shaking at room temperature. 35 μl MSD read buffer T with surfactant was then added per well and subsequently measured using MSD Sector Imager 6000.

[10] = molecular target: GM-CSF (Homo sapiens (Human), UniProt P04141 18-144); test: not described (Table 12, criterion Binding)
GM-CSF, sequence (P04141 18-144 limits assumed): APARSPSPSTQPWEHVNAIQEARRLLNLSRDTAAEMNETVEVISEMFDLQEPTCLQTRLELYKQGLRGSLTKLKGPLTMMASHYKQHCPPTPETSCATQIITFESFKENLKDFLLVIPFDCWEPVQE

Binder	Kd [1]	Kd [2]	other results
B1	0.096 nM	0.13 nM	–
B2	0.014 nM	0.016 nM	–
B3	0.018 nM	0.025 nM	–
B4	0.096 nM	0.15 nM	–
B5	0.013 nM	0.027 nM	–
B6	0.011 nM	0.013 nM	–
B7	–	–	ELISA fluorescence units [3]: > 35000 units; ELISA fluorescence units [4]: > 35000 units; IC50 [5]: 0.027 nM; Kd [6]: > 1 nM; Cell viability assay (IC50), Cynomolgus M-CSF [7]: 0.004 nM; Cell viability assay (IC50), Human M-CSF [8]: 0.004 nM; IC50 [9]: 0.028 nM; binding result [10]: no binding
B8	–	–	ELISA fluorescence units [3]: > 35000 units; ELISA fluorescence units [4]: > 35000 units; IC50 [5]: 0.031 nM; Kd [6]: 0.038 nM; Cell viability assay (IC50), Cynomolgus M-CSF [7]: 0.085 nM; Cell viability assay (IC50), Human M-CSF [8]: 0.071 nM; IC50 [9]: 0.021 nM; binding result [10]: no binding
B9	0.028 nM	0.03 nM	–
B10	0.013 nM	0.007 nM	–
